# Assay results reported in patent publication US20250326842A1 (BEIGENE SWITZERLAND, published 2025).
# Residue numbers refer to the chain shown, from its start. Where two headings read alike, the source gives them in different places.
# B1: BGA121 (antibody, V domains shown)
# VH: QVQLVQSGAEVKKPGASVKVSCKASGYTFTDYAMHWVRQAPGQSLEWMGVVLTHNDNTNYNQKFKARVTMTVDTSASTAYMELSSLRSEDTAVYYCAREVYYDFDDGNYFPMDYWGQGTLVTVSS
# VL: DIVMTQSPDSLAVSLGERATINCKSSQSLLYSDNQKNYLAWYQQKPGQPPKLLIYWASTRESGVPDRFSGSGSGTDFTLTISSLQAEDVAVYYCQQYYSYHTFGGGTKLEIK
# notes: Humanized BGA12
# B2: BGA122 (antibody, V domains shown)
# VH: B1 VH
# VL: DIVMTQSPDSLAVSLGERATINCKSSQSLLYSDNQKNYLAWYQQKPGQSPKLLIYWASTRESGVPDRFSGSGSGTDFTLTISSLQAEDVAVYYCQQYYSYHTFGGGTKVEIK
# notes: Humanized BGA12; also called BGA122-WT
# B3: BGA382 (antibody, V domains shown)
# VH: EVQLVQSGAEVKKPGASVKVSCKASGYTFTDYWIYWVRQAPGQGLEWMGTIDTSDHKTSYNQKFRGRVTMTRDTSTSTVYMELSSLRSEDTAVYYCARDFIITVNYPVVDYWGQGTLVTVSS
# VL: QNVLTQSPATLSLSPGERATLSCSAGSSVNYLHWFQQKPGQAPRLLIYSTSNLASGVPARFSGSGSGTDYTLTISSLEPEDFAVYYCQQRSSLPFTFGQGTKLEIK
# notes: Humanized BGA38
# B4: BGA383 (antibody, V domains shown)
# VH: B3 VH with H56A
# VL: B3 VL with N2I, L32M
# notes: Humanized BGA38
# B5: BGA12 (antibody, V domains shown)
# VH: QVQLQQSGPEVVRPGVSVKISCKGSGYTFTDYAMHWVKQSHGKSLEWIGVVLTHNDNTNYNQKFKAKATMTVDRSSSTAYMELARLTSEDSAIYYCAREVYYDFDDGNYFPMDYWGQGTSVTVSS
# VL: DIVMSQSPSSLAVSVGEKVTMSCKSSQSLLYSDNQKNYLAWYQQKPGQSPKLLIYWASTRESGVPVRFTGSGSGTDFTLTISSVKAEDLAVYYCQQYYSYHTFGGGTKLEIK
# B6: BGA50 (antibody, V domains shown)
# VH: EVQLQQSGPEPVKPGASVKISCKASGYSFTGYFLNWVKQSHGKSLEWIGRISPYNGDTFYNQKFKGKATLTVDKSSSTAHMELLSLTSEDSAVYYCGRSGSFTLFYAMDYWGQGTSVTVSS
# VL: DIVMSQSPSSLAVSVGENITMTCKSSQSLFHSGNQKNYLAWYQQKPGQSPKLLIYWASTRESGVPDRFTGSGSETDFTLTISSVKAEDLAVYFCQQYYSYPITFGAGTKLELK
# notes: also called BGA50-WT
# B7: BGA502 (antibody, V domains shown)
# VH: QVQLVQSGAEVKKPGASVKVSCKASGYSFTGYFLNWVRQAPGQGLEWIGRISPYQGDTFYNQKFKGRVTMTTDKSTSTAYMELRSLRSDDTAVYYCGRSGSFTLFYALDYWGQGTLVTVSS
# VL: DIVMTQSPSSLAVSLGERATINCKSSQSLFHSGNQKNYLAWYQQKPGQSPKLLIYWASTRESGVPDRFSGSGSGTDFTLTISSLQAEDVAVYYCQQYYSYPITFGQGTKLEIK
# notes: Humanized BGA50
# B8: BGA501 (antibody, V domains shown)
# VH: B7 VH with L108I
# VL: B7 VL
# notes: Humanized BGA50; also called BGA501-WT
# B9: BGA503 (antibody, V domains shown)
# VH: B7 VH with T72V
# VL: B7 VL
# notes: Humanized BGA50
# How the values were obtained:
# [1] = target: T1, hPVRIG-ECD-his (human, UniProt Q6DKI7 41-171); experiment: blocking ELISA: hPVRIG-His coated, antibody mixed with PVRL2-biotin at 1 ug/mL; % inhibition of PVRL2 binding
# T1 construct: Acrobiosystems PVG-H52H4; also called hPVRIG-His; human PVRIG-His; not shown: His tag
# T1 sequence: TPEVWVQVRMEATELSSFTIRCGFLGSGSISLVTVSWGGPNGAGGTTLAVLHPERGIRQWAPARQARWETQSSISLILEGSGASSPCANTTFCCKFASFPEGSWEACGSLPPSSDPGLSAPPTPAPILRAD
# [2] = target: T2, human PVRIG recombinant protein (human, UniProt Q6DKI7 41-171); experiment: SPR, antibody captured via anti-human Fc, human PVRIG analyte
# T2 construct: also called human PVRIG protein; recombinant human antigen PVRIG
# T2 sequence: T1 sequence
# Source text: For affinity determination, antibodies were captured by anti-human Fe antibodies, and used in the affinity assay based on surface plasmon resonance (SPR) technology. […] Rmax represents the maximal feasible SPR signal generated by an interaction between a ligand-analyte pair and is represented in response units (RU).
# [3] = target: T3, human PVRIG expressed on cells (human, UniProt Q6DKI7 41-326); experiment: flow cytometry on Jurkat cells expressing human PVRIG, anti-hFc-AF647 detection
# T3 construct: Jurkat cells engineered to express human PVRIG; also called hPVRIG-Jurkat; native human PVRIG
# T3 sequence: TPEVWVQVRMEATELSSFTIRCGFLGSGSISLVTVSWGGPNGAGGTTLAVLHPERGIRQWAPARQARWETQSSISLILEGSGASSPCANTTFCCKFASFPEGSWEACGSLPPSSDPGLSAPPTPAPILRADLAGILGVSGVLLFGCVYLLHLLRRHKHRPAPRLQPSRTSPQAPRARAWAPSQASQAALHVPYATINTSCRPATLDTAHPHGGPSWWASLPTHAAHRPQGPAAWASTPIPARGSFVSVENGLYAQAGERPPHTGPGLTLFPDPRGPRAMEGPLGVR
# Protocol: (§1) To evaluate the binding activity of anti-PVRIG antibodies to native PVRIG on living cells, Jurkat cells were engineered to express human PVRIG. Jurkat cells expressing human PVRIG were seeded in 96 well plates, and were incubated with serially diluted anti-PVRIG antibodies. […] EC50 values for dose dependent binding to human native PVRIG were determined by fitting the dose response data to the four-parameter logistic model with GraphPad Prism™.
# [4] = target: T2, human PVRIG recombinant protein; experiment: SPR, antibody captured via anti-human Fc, human PVRIG analyte; remark: listed apart in the source
# Source text: For affinity determination, anti-PVRIG antibodies were captured by anti-human Fc antibodies, and used in the affinity assay based on surface plasmon resonance (SPR) technology.
# [5] = target: T4, Cyno PVRIG expressed on HEK293 cells (cynomolgus monkey); experiment: flow cytometry on 293T cells expressing cyno PVRIG, anti-hFc-AF647 detection [panel A]
# T4 construct: also called native Cyno PVRIG
# T4 chain: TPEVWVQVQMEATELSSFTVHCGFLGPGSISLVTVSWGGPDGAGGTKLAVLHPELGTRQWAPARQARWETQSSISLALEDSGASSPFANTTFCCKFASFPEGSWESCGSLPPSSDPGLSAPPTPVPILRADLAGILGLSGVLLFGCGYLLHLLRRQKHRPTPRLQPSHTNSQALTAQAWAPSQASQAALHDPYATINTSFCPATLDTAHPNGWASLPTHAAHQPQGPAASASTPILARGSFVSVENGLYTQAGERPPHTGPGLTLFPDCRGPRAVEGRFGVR
# Protocol: (§2) To evaluate the binding activity of anti-PVRIG antibodies to native Cyno PVRIG on living cells. HEK293 cells were engineered to express Cyno PVRIG. HEK293 cells transfected with Cyno PVRIG were seeded in 96 well plates and were incubated with a serial dilution of anti-PVRIG antibodies. […] EC50 values for dose dependent binding to Cyno native PVRIG were determined by fitting the dose response data to the four-parameter logistic model with GraphPad Prism™.
# [6] = target: T1, hPVRIG-ECD-his; experiment: blocking ELISA: hPVRIG-His coated, antibody mixed with PVRL2-biotin at 1 ug/mL; % inhibition of PVRL2 binding [panel A]
# [7] = target: T3, human PVRIG expressed on cells; experiment: flow cytometry on Jurkat cells expressing human PVRIG, anti-hFc-AF647 detection [panel A]
# Protocol: as §1, with “expressing” for “expressing human”, “plates” for “plates,”
# [8] = target: T3, human PVRIG expressed on cells; experiment: flow cytometry on Jurkat cells expressing human PVRIG, anti-hFc-647 detection [panel B]
# Protocol: as §1, with “expressing” for “expressing human”, “plates” for “plates,”
# [9] = target: T4, Cyno PVRIG expressed on HEK293 cells; experiment: flow cytometry on HEK293 cells expressing cyno PVRIG, anti-hFc-647 detection [panel B]
# Protocol: as §2
# [10] = target: T2, human PVRIG recombinant protein; experiment: SPR, antibody captured via anti-human Fc, human PVRIG analyte; remark: listed apart in the source
# Protocol: Chimeric anti-PVRIG antibodies were generated in human IgG1 format and characterized for binding kinetics by surface plasmon resonance (SPR) assays using BIAcore™ T-200 (GE Life Sciences). […] Then a serial dilution of human or Cyno PVRIG protein was flowed over the chip surface and changes in surface plasmon resonance signals were analyzed to calculate the association rates (kₒₙ) and dissociation rates (koff) by using the one-to-one Langmuir binding model (BIA Evaluation Software, GE Life Sciences). The equilibrium dissociation constant (KD) was calculated as the ratio koff/kₒₙ.
# [11] = target: T3, human PVRIG expressed on cells; experiment: FACS on human PVRIG-expressing cells
# [12] = target: T1, hPVRIG-ECD-his; experiment: competition ELISA, antibody against PVRL2 on coated human PVRIG
# [13] = target: T2, human PVRIG recombinant protein; experiment: ELISA, chimeric antibody on recombinant human PVRIG
# [14] = target: T3, human PVRIG expressed on cells; experiment: flow cytometry on Jurkat cells expressing human PVRIG, anti-hFc-AF647 detection; remark: listed apart in the source
# Protocol: as §1, with “to native human PVRIG on” for “to native PVRIG on”
# [15] = target: T1, hPVRIG-ECD-his; experiment: blocking ELISA: hPVRIG-His coated, antibody mixed with PVRL2-biotin at 1 ug/mL; % inhibition of PVRL2 binding; remark: listed apart in the source
# [16] = target: T4, Cyno PVRIG expressed on HEK293 cells; experiment: flow cytometry on 293T cells expressing cyno PVRIG, anti-hFc-AF647 detection
# [17] = target: T2, human PVRIG recombinant protein; experiment: SPR, antibody captured via anti-human Fc, human PVRIG analyte; remark: listed apart in the source
# Source text: For affinity determination, antibodies were captured by anti-human Fc antibodies, and used in the affinity determination based on surface plasmon resonance (SPR) technology.
Binder,IC50 (read off the curve) [1],Kd [2],koff [2],kon [2],EC50 (read off the curve) [3],EC50 (read off the curve) [14],IC50 (read off the curve) [15],EC50 (read off the curve) [16],Kd [17],koff [17],kon [17],other results
B1,~0.6 µg/mL,0.0524 nM,0.00122 s⁻¹,2.33e+07 M⁻¹ s⁻¹,~0.007 µg/mL,–,–,–,–,–,–,–
B2,~0.6 µg/mL,0.0488 nM,0.00199 s⁻¹,4.09e+07 M⁻¹ s⁻¹,~0.007 µg/mL,–,–,–,–,–,–,–
B3,–,–,–,–,–,–,–,–,–,–,–,Kd [4]: 0.0646 nM; koff [4]: 0.000211 s⁻¹; kon [4]: 3.26e+06 M⁻¹ s⁻¹; EC50 (read off the curve) [5]: ~0.03 µg/mL; IC50 (read off the curve) [6]: ~0.4 µg/mL; EC50 (read off the curve) [7]: ~0.03 µg/mL
B4,–,–,–,–,–,–,–,–,–,–,–,Kd [4]: 0.0998 nM; koff [4]: 0.000649 s⁻¹; kon [4]: 6.51e+06 M⁻¹ s⁻¹; EC50 (read off the curve) [8]: ~0.03 µg/mL; EC50 (read off the curve) [9]: ~0.04 µg/mL
B5,~0.6 µg/mL,0.0684 nM,0.00157 s⁻¹,2.29e+07 M⁻¹ s⁻¹,~0.007 µg/mL,–,–,–,–,–,–,Kd [10]: 0.0684 nM; koff [10]: 0.00157 s⁻¹; kon [10]: 2.29e+07 M⁻¹ s⁻¹; EC50 [11]: 0.05 nM; binding Emax (MFI) [11]: 1180 MFI; IC50 [12]: 0.15 nM; PVRIG/PVRL2 blocking Emax (% Inhibition) [12]: 91.9%; EC50 [13]: 0.126 nM
B6,–,–,–,–,–,~0.03 µg/mL,~1 µg/mL,~0.02 µg/mL,0.0907 nM,0.000519 s⁻¹,5.72e+06 M⁻¹ s⁻¹,Kd [10]: 0.147 nM; koff [10]: 0.000652 s⁻¹; kon [10]: 4.45e+06 M⁻¹ s⁻¹; EC50 [11]: 0.273 nM; binding Emax (MFI) [11]: 2610 MFI; IC50 [12]: 1.09 nM; PVRIG/PVRL2 blocking Emax (% Inhibition) [12]: 95.3%; EC50 [13]: 0.105 nM
B7,–,–,–,–,–,~0.01 µg/mL,~1 µg/mL,~0.007 µg/mL,0.103 nM,0.000486 s⁻¹,4.71e+06 M⁻¹ s⁻¹,–
B8,–,–,–,–,–,~0.01 µg/mL,~1 µg/mL,~0.01 µg/mL,0.136 nM,0.000436 s⁻¹,3.21e+06 M⁻¹ s⁻¹,–
B9,–,–,–,–,–,~0.01 µg/mL,~0.8 µg/mL,~0.007 µg/mL,0.12 nM,0.000438 s⁻¹,3.66e+06 M⁻¹ s⁻¹,–
